Measurements reported in WO2022138911A1 (dated 2022).

B1: purified recombinant 7G7.1 antibody (antibody, human IgG1, lambda)
heavy: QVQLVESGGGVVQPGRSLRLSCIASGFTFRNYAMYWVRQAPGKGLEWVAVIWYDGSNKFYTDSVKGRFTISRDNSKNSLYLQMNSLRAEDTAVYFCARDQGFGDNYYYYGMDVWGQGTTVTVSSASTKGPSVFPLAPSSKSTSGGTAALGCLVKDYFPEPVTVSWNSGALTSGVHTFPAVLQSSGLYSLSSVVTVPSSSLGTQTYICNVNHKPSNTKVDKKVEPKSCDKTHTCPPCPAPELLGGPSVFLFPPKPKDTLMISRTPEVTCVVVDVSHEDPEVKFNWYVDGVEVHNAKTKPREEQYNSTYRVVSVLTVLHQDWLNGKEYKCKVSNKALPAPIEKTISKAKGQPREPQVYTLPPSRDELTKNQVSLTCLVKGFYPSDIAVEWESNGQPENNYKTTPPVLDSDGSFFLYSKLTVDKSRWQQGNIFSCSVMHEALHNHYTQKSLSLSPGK
light: SYELTQPPSVSVSPGQTARISCSGDALPKEYAYWYQQKPGQAPVLVIYKDSERPSGIPERFSGSSSGTTVTLTISGVQAEDEADYYCQLADSSMHYVVFGGGTKLTVLGQPKAAPSVTLFPPSSEELQANKATLVCLISDFYPGAVTVAWKADSSPVKAGVETTTPSKQSNNKYAASSYLSLTPEQWKSHRSYSCQVTHEGSTVEKTVAPTECS
B2: purified recombinant 7G7.2 antibody (antibody, human IgG1, kappa)
heavy: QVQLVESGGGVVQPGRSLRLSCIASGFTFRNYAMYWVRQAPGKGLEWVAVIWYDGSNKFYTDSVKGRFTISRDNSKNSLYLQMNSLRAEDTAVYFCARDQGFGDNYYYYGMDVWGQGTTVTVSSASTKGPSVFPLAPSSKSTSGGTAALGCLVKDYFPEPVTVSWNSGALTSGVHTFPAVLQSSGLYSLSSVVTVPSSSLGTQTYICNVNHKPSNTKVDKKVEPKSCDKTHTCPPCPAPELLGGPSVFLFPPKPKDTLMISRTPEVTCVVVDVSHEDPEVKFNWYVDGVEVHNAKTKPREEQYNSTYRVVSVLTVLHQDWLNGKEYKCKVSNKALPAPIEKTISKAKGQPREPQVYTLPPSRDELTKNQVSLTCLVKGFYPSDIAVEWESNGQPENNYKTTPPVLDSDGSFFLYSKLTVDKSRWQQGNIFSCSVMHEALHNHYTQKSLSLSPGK
light: SYELTQPPSVSVSPGQTARISCSGDALPKEYAYWYQQKPGQAPVLVIYKDSERPSGIPERFSGSSSGTTVTLTISGVQAEDEADYYCQLADSSMHYVVFGGGTKLTVLRTVAAPSVFIFPPSDEQLKSGTASVVCLLNNFYPREAKVQWKVDNALQSGNSQESVTEQDSKDSTYSLSSTLTLSKADYEKHKVYACEVTHQGLSSPVTKSFNRGEC

Target: SARS-CoV2 Spike protein (ECD, His & Flag Tag) (GenScript, Z03481) (135 kDa) (SARS-CoV2 virus, UniProt P0DTC2 14-1213)

| Binder | Kd |
| --- | --- |
| B1 | 2.04 nM |
| B2 | 1.55 nM |
